Reference: US20040018191A1 (SCHERING, published 2004)

target: human IGFR1 on cells (HEK293 cells transfected with IGFR1 DNA; MCF-7 cells expressing endogenous IGFR1) (human, UniProt P08069 31-1367); assay: cell-based or functional assay
Sequence (P08069 31-1367 limits assumed): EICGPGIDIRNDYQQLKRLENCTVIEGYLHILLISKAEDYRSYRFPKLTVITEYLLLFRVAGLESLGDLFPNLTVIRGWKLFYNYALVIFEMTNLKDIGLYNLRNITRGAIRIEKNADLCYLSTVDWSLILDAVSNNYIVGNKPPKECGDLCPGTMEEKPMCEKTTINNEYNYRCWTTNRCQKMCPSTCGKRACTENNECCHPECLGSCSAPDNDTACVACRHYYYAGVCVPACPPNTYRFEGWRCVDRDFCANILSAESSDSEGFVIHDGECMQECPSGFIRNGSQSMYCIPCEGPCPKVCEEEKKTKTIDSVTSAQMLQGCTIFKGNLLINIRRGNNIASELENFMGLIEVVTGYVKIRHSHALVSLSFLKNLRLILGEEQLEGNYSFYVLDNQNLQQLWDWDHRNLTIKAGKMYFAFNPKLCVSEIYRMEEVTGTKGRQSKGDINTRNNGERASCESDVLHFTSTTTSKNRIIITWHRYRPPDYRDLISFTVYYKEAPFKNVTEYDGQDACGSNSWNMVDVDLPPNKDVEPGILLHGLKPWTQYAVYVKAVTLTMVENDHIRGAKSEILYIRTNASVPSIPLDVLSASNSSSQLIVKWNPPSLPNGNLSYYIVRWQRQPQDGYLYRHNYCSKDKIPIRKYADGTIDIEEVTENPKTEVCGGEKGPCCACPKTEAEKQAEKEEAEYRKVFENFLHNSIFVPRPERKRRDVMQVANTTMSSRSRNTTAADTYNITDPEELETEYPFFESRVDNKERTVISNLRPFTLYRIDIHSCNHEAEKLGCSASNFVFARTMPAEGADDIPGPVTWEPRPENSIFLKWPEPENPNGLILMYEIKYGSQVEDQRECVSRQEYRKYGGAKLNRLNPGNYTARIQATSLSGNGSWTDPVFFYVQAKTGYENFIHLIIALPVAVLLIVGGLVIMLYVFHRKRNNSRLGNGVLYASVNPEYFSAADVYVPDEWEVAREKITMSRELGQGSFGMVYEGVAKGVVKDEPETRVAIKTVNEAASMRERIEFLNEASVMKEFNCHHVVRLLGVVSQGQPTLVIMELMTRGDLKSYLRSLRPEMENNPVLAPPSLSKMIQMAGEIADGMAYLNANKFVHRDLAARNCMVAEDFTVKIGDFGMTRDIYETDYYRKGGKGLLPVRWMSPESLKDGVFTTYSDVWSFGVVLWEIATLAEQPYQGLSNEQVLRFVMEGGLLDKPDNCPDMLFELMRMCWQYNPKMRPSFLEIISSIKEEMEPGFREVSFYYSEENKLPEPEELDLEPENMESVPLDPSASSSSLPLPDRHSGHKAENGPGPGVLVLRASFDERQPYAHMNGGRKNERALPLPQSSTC

| Binder | IGFR1 autophosphorylation (IGF-I stimulated cells, immunoprecipitation and Western blot), IC50 |
| --- | --- |
| 1H3 fully human monoclonal anti-IGFR1 antibody (antibody, V domains shown) VH: EVQLVQSGGGLVLPGGSLRLSCAGSGFTFSNYAMHWIRQAPGKGLEWVSAIGAGGDTYYADSVKGRFTISRDNAKDSLYLQMNSLRAEDMAVYYCARGRHRNWYYYNKDYWGQGTLVTVSS VL: EIVLTQSPATLSLSPGERATLSCRASQSVSSFLAWYQQKPGQAPRLLIYDASNRAPGIPARFSGSGSGTDFTLTISSLEPEDFAVYYCQQRSNWPRWTFGQGTKVEIKR | 100 pM |
| 15H12 fully human monoclonal anti-IGFR1 antibody (antibody, IgG3, V domains shown) VH: EVQLVQSGGGLVHPGGSLRLSCAASGFTFSSFAMHWVRQAPGKGLEWISVIDTRGATYYADSVKGRFTISRDNAKNSLYLQMNSLRAEDMAVYYCARLGNFYYGMDVWGQGTTVTVSS VL: EIVLTQVPDFQSVTPKEKVTITCRASQSIGSSLHWYQQKPDQSPKLLIKYASQSLSGVPSRFSGSGSGTDFTLTINSLEAEDAAAYYCHQSSRLPHTFGGGTKVEIKR | 100 pM |
| 19D12 fully human monoclonal anti-IGFR1 antibody (antibody, V domains shown) VH: EVQLVQSGGGLVHPGGSLRLSCAASGFTFSSFAMHWVRQAPGKGLEWISVIDTRGATYYADSVKGRFTISRDNAKNSLYLQMNSLRAEDMAVYYCARLGNFYYGMDVWGQGTTVTVSS VL: EIVLTQVPDFQSVTPKEKVTITCRASQSIGSSLHWYQQKPDQSPKLLIKYASQSLSGVPSRFSGSGSGTDFTLTINSLEAEDAAAYYCHQSSRLPHTFGGGTKVEIKR | 100 pM |
